Reference: the RNAGym collection of RNA variant scans (doi:10.7554/elife.90254)

B1: OR4K15 (parent)
chain: GUUAACGGUCAUAGGCCAUGGAAACUAGGAGCACCAUUUCGCUGCCAGUGAAGAAAUGAACAAAGAAAAUCUGGGCCAGGCAGGCAUCAAAAGAAAUAGUCUUGCGCUCAACCAGAAAGUCUGUAAUCAUUUUAAGGGUA

Variants of: B1
Assay: self-cleavage, relative activity (ratio to wild type); higher = more cleavage; in vitro, sequencing; the parent is a self-cleaving ribozyme

Variant	self-cleavage
GUUAACGGUCAUAGGCCAUGGAAACUAGGAGCACCAUUUCGCUGCCAGAGAAGAAAUGGACAAAGAAAAUCUGGGCCAGGCAGGCAUCAAAAGAAAUAGUCUUGCGCUCAACCAGAAAGUCUGUAAUCAUUUUAAGGGUA [U49A A59G]	1.44
GUUAACGGUCAUAGGCCAUGGAAACUAGGAGCACCAUUUCGCUGCCAGAGAAGAGAUGAACAAAGAAAAUCUGGGCCAGGCAGGCAUCAAAAGAAAUAGUCUUGCGCUCAACCAGAAAGUCUGUAAUCAUUUUAAGGGUA [U49A A55G]	1.53
GUUAACGGUCAUAGGCCAUGGAAACUAGGAGCACCAUUUCGCUGCCAUUGAAGAAAUGAACAAAGAAAAUCUGGGCCAGGCAGGCAUCAAAAGAAAUAGUCUCGCGCUCAACCAGAAAGUCUGUAAUCAUUUUAAGGGUA [G48U U103C]	0.49
GUUAACGGUCAUAGGCCAUGGAAACUAGGAGCACCAUUUCGCUGCCAGAGAAGAAAUGAACAAAGAAGAUCUGGGCCAGGCAGGCAUCAAAAGAAAUAGUCUUGCGCUCAACCAGAAAGUCUGUAAUCAUUUUAAGGGUA [U49A A68G]	0.95
GUUAACGGUCAUAGGCCAUGGAAACUAGGAGCACCAUUUCGCUGCCAGAGAAGAAAUGAACAAAGAAAGUCUGGGCCAGGCAGGCAUCAAAAGAAAUAGUCUUGCGCUCAACCAGAAAGUCUGUAAUCAUUUUAAGGGUA [U49A A69G]	1.49
GUUAACGGUCAUAGGCCAUGGAAACUAGGAGCACCAUUUCGCUGCCAGAGAAGUAAUGAACAAAGAAAAUCUGGGCCAGGCAGGCAUCAAAAGAAAUAGUCUUGCGCUCAACCAGAAAGUCUGUAAUCAUUUUAAGGGUA [U49A A54U]	0.89
GUUAACGGUCAUAGGCCAUGGAAACUAGGAGCACCAUUUCGCUGCCAGAGAAGGAAUGAACAAAGAAAAUCUGGGCCAGGCAGGCAUCAAAAGAAAUAGUCUUGCGCUCAACCAGAAAGUCUGUAAUCAUUUUAAGGGUA [U49A A54G]	1.3
GUUAACGGUCAUAGGCCAUGGAAACUAGGAGCACCAUUUCGCUGCCAGAGAGGAAAUGAACAAAGAAAAUCUGGGCCAGGCAGGCAUCAAAAGAAAUAGUCUUGCGCUCAACCAGAAAGUCUGUAAUCAUUUUAAGGGUA [U49A A52G]	0.96
GUUAACGGUCAUAGGCCAUGGAAACUAGGAGCACCAUUUCGCUGCCAGAGAAGAAAUGAACAAAGUAAAUCUGGGCCAGGCAGGCAUCAAAAGAAAUAGUCUUGCGCUCAACCAGAAAGUCUGUAAUCAUUUUAAGGGUA [U49A A66U]	1.29
GUUAACGGUCAUAGGCCAUGGAAACUAGGAGCACCAUUUCGCUGCCAGAGAAGAAAUGAACAAAGCAAAUCUGGGCCAGGCAGGCAUCAAAAGAAAUAGUCUUGCGCUCAACCAGAAAGUCUGUAAUCAUUUUAAGGGUA [U49A A66C]	1.48
GUUAACGGUCAUAGGCCAUGGAAACUAGGAGCACCAUUUCGCUGCCAUUGAAGAAAUGAACAAAGAAAAUCUGGGCCAGGCAGGCAUCAAAAGGAAUAGUCUUGCGCUCAACCAGAAAGUCUGUAAUCAUUUUAAGGGUA [G48U A94G]	0.54
GUUAACGGUCAUAGGCCAUGGAAACUAGGAGCACCAUUUCGCUGCCAGAGAAGAAAUGAACAAAGAAAAUCUGGGCCAGGCUGGCAUCAAAAGAAAUAGUCUUGCGCUCAACCAGAAAGUCUGUAAUCAUUUUAAGGGUA [U49A A82U]	0.18
GUUAACGGUCAUAGGCCAUGGAAACUAGGAGCACCAUUUCGCUGCCAUUGAAGAAAUGAACAAAGAAAAUCUGGGCCAGGCAGGCAUCAAAAGAAAUAGUCUUGCGCUCAACCUGAAAGUCUGUAAUCAUUUUAAGGGUA [G48U A114U]	0.09
GUUAACGGUCAUAGGCCAUGGAAACUAGGAGCACCAUUUCGCUGCCAUUGAAGAAAUGAACAAAGAAAAUCUGGGCCAGGCAGGCAUCAAAAGAAGUAGUCUUGCGCUCAACCAGAAAGUCUGUAAUCAUUUUAAGGGUA [G48U A96G]	1.28
GUUAACGGUCAUAGGCCAUGGAAACUAGGAGCACCAUUUCGCUGCCAUUGAAGAAAUGAACAAAGAAAAUCUGGGCCAGGCAGGCAUCAAAAGAAAUAGUCUUGCGCUCAACCAGAAGGUCUGUAAUCAUUUUAAGGGUA [G48U A118G]	1.08
GUUAACGGUCAUAGGCCAUGGAAACUAGGAGCACCAUUUCGCUGCCAUUGAAGAAAUGAACAAAGAAAAUCUGGGCCAGGCAGGCAUCAAAAGAAAUAGUCUUGCGCUCGACCAGAAAGUCUGUAAUCAUUUUAAGGGUA [G48U A110G]	0.2
GUUAACGGUCAUAGGCCAUGGAAACUAGGAGCACCAUUUCGCUGCCAGAGAAGAAAUGAACGAAGAAAAUCUGGGCCAGGCAGGCAUCAAAAGAAAUAGUCUUGCGCUCAACCAGAAAGUCUGUAAUCAUUUUAAGGGUA [U49A A62G]	0.7
GUUAACGGUCAUAGGCCAUGGAAACUAGGAGCACCAUUUCGCUGCCAUUGAAGAAAUGAACAAAGAAAAUCUGGGCCAGGCAGGCAUCAAGAGAAAUAGUCUUGCGCUCAACCAGAAAGUCUGUAAUCAUUUUAAGGGUA [G48U A91G]	1
GUUAACGGUCAUAGGCCAUGGAAACUAGGAGCACCAUUUCGCUGCCAGAGAAGAAAUGAACAAAGAAAAUCUGGGCCAGGCAGGCAUCCAAAGAAAUAGUCUUGCGCUCAACCAGAAAGUCUGUAAUCAUUUUAAGGGUA [U49A A89C]	0.85
GUUAACGGUCAUAGGCCAUGGAAACUAGGAGCACCAUUUCGCUGCCAGAGUAGAAAUGAACAAAGAAAAUCUGGGCCAGGCAGGCAUCAAAAGAAAUAGUCUUGCGCUCAACCAGAAAGUCUGUAAUCAUUUUAAGGGUA [U49A A51U]	1.63
GUUAACGGUCAUAGGCCAUGGAAACUAGGAGCACCAUUUCGCUGCCAGAGCAGAAAUGAACAAAGAAAAUCUGGGCCAGGCAGGCAUCAAAAGAAAUAGUCUUGCGCUCAACCAGAAAGUCUGUAAUCAUUUUAAGGGUA [U49A A51C]	0.3
